From patent publication US20190276531A1

Experiments:
[1] = molecular target: cynomolgus TIM-3 Fc fusion antigen (Sino Biologicals) (cynomolgus monkey (Macaca fascicularis)); experiment: ELISA; EC50 on cynomolgus TIM-3 over EC50 on human TIM-3
[2] = molecular target: cynomolgus TIM-3 Fc fusion antigen (Sino Biologicals) (cynomolgus monkey (Macaca fascicularis)); experiment: ELISA; TIM-3 Fc fusion coated at 1 µg/ml, antibody titrated 2-fold from 1000 nM, HRP secondary

cynomolgus TIM-3 Fc fusion antigen (Sino Biologicals) (cynomolgus monkey (Macaca fascicularis)), sequence (chain, as listed by the source limits assumed): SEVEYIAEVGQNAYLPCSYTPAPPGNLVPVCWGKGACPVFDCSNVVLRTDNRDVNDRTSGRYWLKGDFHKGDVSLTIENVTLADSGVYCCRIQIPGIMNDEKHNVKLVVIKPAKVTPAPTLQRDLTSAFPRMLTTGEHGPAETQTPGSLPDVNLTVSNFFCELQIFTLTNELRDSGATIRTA

B1: antibody 19416 (antibody, V domains shown)
VH: QVQLVESGPGLVKPSQTLSLTCTVSGGSINSGGYYWSWIRQHPGKGLEWIGYIYYSGSIYYNPSLRSRLTISVDTSKNQFSLKLSSVTAADTAVYYCATPYYYGSGSYGDYWGQGTLVTVSS
VL: DIQMTQSPATLSLSPGERATLSCRASQSVNNYLAWYQQKPGQAPRLLIYDASNRATGIPARFSGSGSGTDFTLTISSLEPEDFAVYYCQQRSNWPITFGQGTRLEIK
With B1 as the binder, how does the Ratio Cynomolgus/Human EC50 [1] read?
Its Ratio Cynomolgus/Human EC50 is 47.

What about the EC50 [2] of the same binder?
Its EC50 is 9.42 nM.
